The target of data set [1] is MBD3 MBD (crystallization) (Homo sapiens, UniProt O95983 1-71). The experiment in a line: crystal structure.
The next data set concerns the target MBD2 MBD R188A (Homo sapiens, UniProt Q9UBB5 143-220, R188A). The experiment in a line: ITC.
Another data set addresses MBD3 MBD (Homo sapiens, UniProt O95983 1-71). Nature of the data set: ITC.
A further data set has as its target MBD2 MBD R166A (Homo sapiens, UniProt Q9UBB5 143-220, R166A). Nature of the data set: ITC.
The target of a further data set is MBD4 MBD (Homo sapiens, UniProt O95243 55-152). The experiment in a line: ITC.
Chain of MBD4 MBD (O95243 55-152): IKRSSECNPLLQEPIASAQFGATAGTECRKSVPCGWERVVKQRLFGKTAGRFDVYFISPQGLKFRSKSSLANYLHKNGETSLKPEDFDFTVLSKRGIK
A further data set concerns the target T1, MBD1 MBD (Homo sapiens, UniProt Q9UIS9 1-77).
T1 sequence: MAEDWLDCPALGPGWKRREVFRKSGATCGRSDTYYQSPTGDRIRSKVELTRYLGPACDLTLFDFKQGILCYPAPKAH
Nature of the data set: ITC.

A further data set deals with MeCP2 MBD (Homo sapiens, UniProt P51608 80-164). The experiment in a line: ITC.
Chain of MeCP2 MBD (P51608 80-164): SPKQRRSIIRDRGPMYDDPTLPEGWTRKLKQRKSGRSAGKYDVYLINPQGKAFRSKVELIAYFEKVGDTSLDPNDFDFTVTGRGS
The target in another data set is MBD2 MBD (Homo sapiens, UniProt Q9UBB5 143-220). The experiment in a line: ITC.
Chain of MBD2 MBD (Q9UBB5 143-220): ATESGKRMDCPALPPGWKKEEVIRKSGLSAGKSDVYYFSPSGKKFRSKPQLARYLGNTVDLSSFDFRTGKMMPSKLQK

Chain of MBD3 MBD (O95983 1-71): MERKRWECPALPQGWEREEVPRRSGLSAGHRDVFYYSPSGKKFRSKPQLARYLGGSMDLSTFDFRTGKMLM
Chain of MBD2 MBD R166A (Q9UBB5 143-220 R166A): as the sequence (Q9UBB5 143-220) above, with R24A counted along it
Chain of MBD2 MBD R188A (Q9UBB5 143-220 R188A): as the sequence (Q9UBB5 143-220) above, with R46A counted along it
Chain of MBD3 MBD (crystallization) (O95983 1-71): as the sequence (O95983 1-71) above

B1: AmCGC (dsDNA)
DNA 1: GCCAACGCTGGC
DNA 2: GCCAGCGTTGGC
modifications: 5mC at position 6 of both strands
Turning to B1, the binding result in data set [1] was “binds”.

B2: GmCGC (dsDNA)
DNA 1: GCCAGCGCTGGC
DNA 2: GCCAGCGCTGGC
modifications: 5mC at position 6 of both strands
B2: the Kd was 5600 ± 500 nM with MBD2 MBD R188A and 5200 ± 500 nM in the data set with MBD3 MBD. In addition, in the data set with MBD2 MBD R166A, the binding result is given as “no binding”.

B3: AmCGT (mCG) (dsDNA)
DNA 1: GCCAACGTTGGC
DNA 2: GCCAACGTTGGC
modifications: 5mC at position 6 of both strands
Consider B3, for which the Kd with MBD4 MBD stood at 400 ± 100 nM; in the data set with MBD3 MBD it was 5400 ± 1200 nM; in the data set with MBD1 MBD, 1000 ± 100 nM; with MeCP2 MBD, 1200 ± 200 nM; with MBD2 MBD, 900 ± 200 nM.

B4: mCG/TG (dsDNA)
DNA 1: GTCAACGTTACG
DNA 2: CGTAATGTTGAC
modifications: 5mC at position 6 of strand 1
As for B4, the Kd worked out at 1500 ± 300 nM in the data set with MBD4 MBD; 6500 ± 1200 nM with MBD3 MBD; 2200 ± 300 nM with MBD1 MBD; 1200 ± 200 nM in the data set with MeCP2 MBD; 1600 ± 200 nM with MBD2 MBD.

B5: hmCG (dsDNA)
DNA 1: GCCAGCGCTGGC
DNA 2: GCCAGCGCTGGC
modifications: 5hmC at position 6 of both strands
For B5, the dissociation constant Kd with MeCP2 MBD stood at 32000 ± 4000 nM; in the data set with MBD2 MBD, 9700 ± 2300 nM.
